Measurements taken from paper PMC3326303.
Like-named read-outs stand apart in the source and are kept apart here.

Assays:
Msi1 RBD1 [1] = target: T1, Msi1 RBD1 (Mus musculus, UniProt Q61474 20-103); assay: NMR HSQC titration
Msi1 RBD2 = Msi1 RBD2 (Mus musculus, UniProt Q61474 109-191); assay: NMR HSQC titration
Msi1 RBD1-2 = Msi1 RBD1-2 (Mus musculus, UniProt Q61474 20-191); assay: NMR HSQC titration
Msi1 RBD1 [2] = target: T1, Msi1 RBD1; assay: competition
Msi1 RBD1 [3] = target: T1, Msi1 RBD1; assay: NMR HSQC titration; remark: listed apart in the source

T1 sequence (Q61474 20-103): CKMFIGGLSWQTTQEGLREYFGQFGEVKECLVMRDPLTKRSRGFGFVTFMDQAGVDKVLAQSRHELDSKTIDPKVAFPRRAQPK
Chain of Msi1 RBD2 (Q61474 109-191): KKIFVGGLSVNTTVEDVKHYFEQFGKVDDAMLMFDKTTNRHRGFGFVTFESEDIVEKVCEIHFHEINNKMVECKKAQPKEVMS
Chain of Msi1 RBD1-2 (Q61474 20-191): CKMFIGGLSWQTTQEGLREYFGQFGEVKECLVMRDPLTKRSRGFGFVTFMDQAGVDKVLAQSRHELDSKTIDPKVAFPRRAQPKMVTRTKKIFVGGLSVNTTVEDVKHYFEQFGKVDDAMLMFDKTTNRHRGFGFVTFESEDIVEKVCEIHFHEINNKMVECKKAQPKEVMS

B1: numb5 (ssRNA)
RNA: GUAGU
- binding result (Msi1 RBD1 [1]): binds

B2: numb6-1 (ssRNA)
RNA: UAGGUA
- binding result (Msi1 RBD2): binds

B3: numb15 (ssRNA)
RNA: UAGGUAGUAGUUUUA
- binding result (Msi1 RBD1-2): binds

B4: numb6-4 (ssRNA)
RNA: GUAGUU
- binding signal (Msi1 RBD1 [2]): ~1 ratio of complex signal to numb6-2 complex

B5: numb6-2 (ssRNA)
RNA: GGUAGU
- binding result (Msi1 RBD1 [3]): binds
- binding result (Msi1 RBD2): binds
